Target: T1, RAD51 (protein of the in vitro assays) (UniProt Q06609 1-339)
T1 sequence (looked up): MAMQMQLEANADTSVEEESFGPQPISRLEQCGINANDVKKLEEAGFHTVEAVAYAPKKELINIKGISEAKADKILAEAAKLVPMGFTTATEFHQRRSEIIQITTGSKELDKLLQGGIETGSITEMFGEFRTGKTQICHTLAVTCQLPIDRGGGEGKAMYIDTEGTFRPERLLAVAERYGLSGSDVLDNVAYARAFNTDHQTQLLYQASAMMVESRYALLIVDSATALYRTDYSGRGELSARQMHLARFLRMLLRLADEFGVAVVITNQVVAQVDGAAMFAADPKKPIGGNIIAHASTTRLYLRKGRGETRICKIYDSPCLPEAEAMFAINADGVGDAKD
Assay: cell-based or functional assay

activity to dissociate RAD51 from ssDNA relative to wild-type FIGNL1ΔN (0.2 µM protein): 3.2 fold decrease
B1: FIGNL1ΔN-EE (F295E, A298E) (domain or fragment, human, UniProt Q6PIW4 285-674, looked up)
chain: GPKEDSSLPTEKTEKEQLWVDQQKKYHQPQRASGSSYGGVKKSLGASRSRGILGKFVPPIPKQDGGEQNGGMQCKPYGAGPTEPAHPVDERLKNLEPKMIELIMNEIMDHGPPVNWEDIAGVEFAKATIKEIVVWPMLRPDIFTGLRGPPKGILLFGPPGTGKTLIGKCIASQSGATFFSISASSLTSKWVGEGEKMVRALFAVARCQQPAVIFIDEIDSLLSQRGDGEHESSRRIKTEFLVQLDGATTSSEDRILVVGATNRPQEIDEAARRRLVKRLYIPLPEASARKQIVINLMSKEQCCLSEEEIEQIVQQSDAFSGADMTQLCREASLGPIRSLQTADIATITPDQVRPIAYIDFENAFRTVRPSVSPKDLELYENWNKTFGCGK
